Test results as given in US20260078196A1 (TJ BIOPHARMA SHANGHAI, published 2026).

What was measured:
monomeric human 4-1BB [1] = target: T1, monomeric human 4-1BB (human, UniProt Q07011 24-186, limits assumed); test: SPR, measured in parallel
T1 construct: SPR analyte/ligand

monomeric human 4-1BB [2] = target: T1, monomeric human 4-1BB; test: SPR, monomeric human 4-1BB
4-1BB on cells = target: T2, 4-1BB on cells (human, UniProt Q07011 24-255); test: flow cytometry (GMFI) on HEK293T-4-1BB cells
T2 construct: Species is stated as human for section 2.2 as a whole, not for each cell line; also called HEK293 cells expressing 4-1BB; 4-1BB overexpressed HEK293 cell

[3] = target: T3, soluble recombinant human 4-1BB (human, UniProt Q07011 24-186); test: ELISA (OD450) on soluble recombinant human 4-1BB
T3 construct: ELISA antigen
T3 sequence (Q07011 24-186 limits assumed): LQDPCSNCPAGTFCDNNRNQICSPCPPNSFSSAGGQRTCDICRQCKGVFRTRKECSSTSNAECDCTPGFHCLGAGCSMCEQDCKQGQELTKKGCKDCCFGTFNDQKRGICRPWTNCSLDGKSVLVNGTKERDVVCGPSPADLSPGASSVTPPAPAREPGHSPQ

T1 sequence (Q07011 24-186 limits assumed): as above
T2 sequence (Q07011 24-255): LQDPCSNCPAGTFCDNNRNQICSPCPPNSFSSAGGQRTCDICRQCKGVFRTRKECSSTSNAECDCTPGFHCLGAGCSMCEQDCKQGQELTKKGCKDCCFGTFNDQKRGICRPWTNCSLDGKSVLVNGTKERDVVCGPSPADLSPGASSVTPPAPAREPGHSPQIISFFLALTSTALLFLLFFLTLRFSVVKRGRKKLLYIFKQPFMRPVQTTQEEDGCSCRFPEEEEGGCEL

Kd (monomeric human 4-1BB [1]): 4.39 nM | kon (monomeric human 4-1BB [2]): 383000 M⁻¹ s⁻¹ | EC50 (4-1BB on cells): 0.131 nM | EC50 [3]: 0.071 nM
B1: parental anti-4-1BB sdAb antibody conjugated with IgG1 Fc fragment (Fc fusion)
chain: QVQLQESGGGLVQPGGSLRLSCAASGYTYSSNCMGWFRQAPGKGLEGVAVICTGGGSPSYADSVKGRFTISRDNAKNTLYLQMNSLRAEDTAVYYCAADLLRAGTPLSSYEFNYWGQGTLVTVSS
notes: also called 4-1BB sdAb-Fc; not shown: IgG1 Fc fragment
